For orientation: Km means the substrate concentration at which the rate is half of its maximum. Usually kcat stands for the number of substrate molecules converted per active site and unit of time at saturation. The term kcat/Km denotes the second-order rate constant that governs catalysis at low substrate concentration.

3 molecules from article PMC12777564, “Proposal of metagenomic-origin LRA-5 as a precursor of active β-lactamases through Tyr69Gln and Val166Glu amino acid substitutions: a functional and structural analysis” (Antimicrobial Agents and Chemotherapy, 2025) can be followed below.

For data set [1], the system named is C[C@@H](O)[C@H]1C(=O)N2C(C(=O)O)=C(S[C@@H]3CN[C@H](C(=O)N(C)C)C3)[C@H](C)[C@H]12. Description: steady-state hydrolysis kinetics with pure enzyme (Km). The data set is classed as biochemical, uncultured bacterium BLR5.
Data set [2] deals with C[C@@H](O)[C@H]1C(=O)N2C(C(=O)O)=C(SCCN=CN)C[C@H]12. The description is as above. The data set is classed as biochemical, uncultured bacterium BLR5.
Data set [3] has as its system CC(=O)OCC1=C(C(=O)O)N2C(=O)[C@@H](NC(=O)Cc3cccs3)[C@H]2SC1. The data set is described as above. It counts as biochemical, uncultured bacterium BLR5.
Data set [4] deals with O=C(Cc1cccs1)N[C@@H]1C(=O)N2C(C(=O)O)=C(/C=C/c3ccc([N+](=O)[O-])cc3[N+](=O)[O-])CS[C@H]12. The description is as above. It counts as biochemical, uncultured bacterium BLR5.
Data set [5] relates to CC1(C)S[C@@H]2[C@H](NC(=O)[C@H](N)c3ccccc3)C(=O)N2[C@H]1C(=O)O. The description is as above. It counts as biochemical, uncultured bacterium BLR5.
For data set [6], the system named is CO/N=C(\C(=O)N[C@@H]1C(=O)N2C(C(=O)O)=C(CSc3nc(=O)c(=O)[nH]n3C)CS[C@H]12)c1csc(N)n1. Described as above. It counts as biochemical, uncultured bacterium BLR5.
Data set [7] relates to CO/N=C(\C(=O)N[C@@H]1C(=O)N2C(C(=O)[O-])=C(C[N+]3(C)CCCC3)CS[C@H]12)c1csc(N)n1. Kind of data set: steady-state hydrolysis kinetics with pure enzyme (Km), no-enzyme control. It counts as biochemical, uncultured bacterium BLR5. From the text:
steady-state hydrolysis kinetics with pure enzyme (Km), no-enzyme control on LRA-5 | The exceptions were nitrocefin and, strikingly, cefepime.

In data set [8] the test system is C[C@H]1[C@H](NC(=O)/C(=N\OC(C)(C)C(=O)O)c2csc(N)n2)C(=O)N1S(=O)(=O)O. Description: purified protein, by the assay type. Also noted: steady-state beta-lactam hydrolysis kinetics with purified LRA-5; Km (apparent Km via nitrocefin competition for poor substrates). The conditions noted are these: pH 7.5. The method, then:
(§1) For low Km values, the kcat values were derived by complete hydrolysis time courses as described by De Meester et al. ([41]). For poor substrates that behave as competitive inhibitors, the Ki was obtained by monitoring the residual activity of the enzyme in the presence of various concentrations of the drug and 100 µM nitrocefin as reporter substrate; the corrected Ki (considered the observed or apparent Km) value was finally determined using equation 2: The kinetic parameters of wild-type LRA-5 and its double substituted variant LRA-5^Y69Q/V166E are shown in Table 3. […] This behavior is expected considering that this variant lacks Glu166, which is essential to orient the deacylation water molecule during the regeneration stage of the active site. The exceptions were nitrocefin and, strikingly, cefepime. This behavior deserves more in-depth analysis. […] Overnight cultures of recombinant E. coli BL21(DE3) cells expressing wild-type LRA-5 and LRA-5^Y69Q/V166E were diluted (1/50) in 500 mL Lysogeny Broth (LB) supplemented with 30 µg/mL kanamycin and grown at 37°C until 0.6–0.8 OD units (λ = 600 nm) was reached. At this point, 1 mM isopropyl β-D-thiogalactopyranoside (IPTG) was added, and cultures were resumed for growing overnight at 20°C (200 rpm stirring). Then, cell pellets were obtained after centrifugation at 8,000 rpm for 20 min (4°C) in a Sorvall RC-5C (GS3 rotor) and resuspended in 20 mM Tris buffer (pH 7.5) + 500 mM NaCl (buffer A). Crude extracts were obtained by ultrasonic disruption (9 cycles of 5 min, 40% potency, 20 pulses/min, on ice bath) and clarified by centrifugation at 10,000 rpm for 20 min (4°C, SS34 rotor). Clarified supernatants were filtrated through 0.45 µm pore-size membranes, and loaded onto 5 mL HisTrap HP affinity columns (GE Healthcare Life Sciences, USA), connected to an ÄKTA-purifier (GE Healthcare, Uppsala, Sweden), and equilibrated with buffer A. The column was extensively washed to remove unbound proteins, and the LRA-5 proteins were eluted using a linear gradient (0%–100%; 1 mL/min flow rate) of buffer B consisting of buffer A + 500 mM imidazole (pH 7.5). Eluted fractions were analyzed by SDS-PAGE in 15% polyacrylamide gels. Fractions containing the pure LRA-5 variants were dialyzed against buffer A, and the histidine tag was removed by thrombin digestion (16 h at 25°C), using 10 U thrombin per mg protein for complete proteolysis, and later by affinity purification using 1 mL HisTrap HP columns (GE Healthcare Life Sciences, USA), following the same conditions as before (the pure LRA-5 is recovered in the pass-through, while the His-tag and any uncleaved fractions remain attached to the column). The protein purity was assessed by Coomassie blue staining on 15% SDS polyacrylamide gels, and protein concentration was determined by UV absorbance at 280 nm and calculated according to the Lambert-Beer law. The fractions of purified enzymes were stored at −80°C for subsequent kinetics and crystallographic assays.

Data set [9] relates to CC(=O)OCC1=C(C(=O)O)N2C(=O)[C@@H](NC(=O)Cc3cccs3)[C@H]2SC1. Description: purified protein, by the assay type. Set-up: steady-state beta-lactam hydrolysis kinetics with purified LRA-5; Km (apparent Km via nitrocefin competition for poor substrates). The following applies: pH 7.5. As for the experimental part: as §1
The subject of data set [10] is O=C(Cc1cccs1)N[C@@H]1C(=O)N2C(C(=O)O)=C(/C=C/c3ccc([N+](=O)[O-])cc3[N+](=O)[O-])CS[C@H]12. Description: purified protein, by the assay type. The following applies: pH 7.5. Set-up: steady-state beta-lactam hydrolysis kinetics with purified LRA-5; Km (apparent Km via nitrocefin competition for poor substrates). The method, then: as §1
Data set [11] deals with CC1(C)S[C@@H]2[C@H](NC(=O)[C@H](N)c3ccccc3)C(=O)N2[C@H]1C(=O)O. Kind of data set: purified protein, by the assay type. The following applies: pH 7.5. Set-up: steady-state beta-lactam hydrolysis kinetics with purified LRA-5; Km (apparent Km via nitrocefin competition for poor substrates). As for the experimental part: as §1
In data set [12] the test system is CO/N=C(\C(=O)N[C@@H]1C(=O)N2C(C(=O)O)=C(CSc3nc(=O)c(=O)[nH]n3C)CS[C@H]12)c1csc(N)n1. Kind of data set: purified protein, by the assay type. Also noted: steady-state beta-lactam hydrolysis kinetics with purified LRA-5; Km (apparent Km via nitrocefin competition for poor substrates). The following applies: pH 7.5. The method, then: as §1
The next data set concerns the target T1, LRA-5 (uncultured bacterium BLR5, UniProt B5L5W7).
T1 construct: gene blaLRA-5
Description: biochemical. Set-up: time-dependent inactivation of purified LRA-5 by clavulanate, 100 uM nitrocefin as reporter substrate. The following applies: wild-type LRA-5. The method, then:
For irreversible inhibitors like clavulanic acid, the rate constant of inactivation, kinact, was measured directly by time-dependent inactivation of LRA-5 variants using a fixed concentration of enzyme and 100 µM nitrocefin as reporter and increasing concentrations of the inhibitor. The observed rate constant for inactivation (kobs) was determined by nonlinear least-squares fitting of the data using equation 3, as described elsewhere ([42]). […] This behavior is not entirely striking, as it may be related to the fact that the absence of Glu166 in the wild-type variant could still favor the inhibition of clavulanate, due to the absence of the water molecule that normally “competes” with inhibitors during acylation ([29]). Overnight cultures of recombinant E. coli BL21(DE3) cells expressing wild-type LRA-5 and LRA-5^Y69Q/V166E were diluted (1/50) in 500 mL Lysogeny Broth (LB) supplemented with 30 µg/mL kanamycin and grown at 37°C until 0.6–0.8 OD units (λ = 600 nm) was reached. […] Eluted fractions were analyzed by SDS-PAGE in 15% polyacrylamide gels. […] The protein purity was assessed by Coomassie blue staining on 15% SDS polyacrylamide gels, and protein concentration was determined by UV absorbance at 280 nm and calculated according to the Lambert-Beer law. […]

T1 sequence (B5L5W7 entry or part of it): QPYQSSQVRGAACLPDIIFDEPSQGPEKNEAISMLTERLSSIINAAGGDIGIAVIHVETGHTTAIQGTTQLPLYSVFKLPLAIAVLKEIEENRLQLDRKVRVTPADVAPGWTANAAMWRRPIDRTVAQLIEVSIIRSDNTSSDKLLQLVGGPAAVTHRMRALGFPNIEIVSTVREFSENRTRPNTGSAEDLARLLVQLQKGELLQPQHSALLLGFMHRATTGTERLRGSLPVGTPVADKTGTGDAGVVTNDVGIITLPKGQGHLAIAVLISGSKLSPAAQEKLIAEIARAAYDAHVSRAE

On to “LRA-5^Y69Q/V166E (uncultured bacterium BLR5; V199E/Y100Q)”, for which the Km in data set [1] amounted to 5.0 ± 0.6 µM; in data set [2], 3.0 ± 0.1 µM; in data set [3], 14 ± 3 µM; in data set [4], 32 ± 4 µM; in data set [5], 4.0 ± 0.2 µM; in data set [6], 29 ± 9 µM. In addition, the kcat was determined as 0.003 ± 0.0007 s⁻¹ in data set [1]; 0.006 ± 0.0002 s⁻¹ in data set [2]; 0.025 ± 0.001 s⁻¹ in [3]; 4.8 ± 0.3 s⁻¹ in data set [4]; 0.002 ± 0.0006 s⁻¹ in data set [5]; 0.107 ± 0.01 s⁻¹ in data set [6]. Further, the kcat/Km in [1] was found to be 600 ± 157 M⁻¹ s⁻¹; in data set [2], 1920 ± 86 M⁻¹ s⁻¹; in data set [3] it was 1780 ± 389 M⁻¹ s⁻¹; in data set [4], 150000 ± 21000 M⁻¹ s⁻¹; in data set [5] it was 500 ± 152 M⁻¹ s⁻¹; in [6], 3690 ± 1200 M⁻¹ s⁻¹.

Take LRA-5 (uncultured bacterium BLR5): the Km came to 10.0 ± 0.5 µM in [7]; 35 ± 4 µM in data set [9]; 8 ± 2 µM in data set [10]; 65 ± 13 µM in data set [11]; 11 ± 2 µM in data set [12]. Further, the kcat in [7] was found to be 0.02 ± 0.006 s⁻¹; in data set [8], 2e-05 ± 3e-06 s⁻¹; in [9], 0.005 ± 0.0008 s⁻¹; in data set [10] it was 0.045 ± 0.001 s⁻¹; in data set [11] it was 0.01 ± 0.002 s⁻¹; in data set [12] it was 3.6e-06 ± 6e-07 s⁻¹. The kcat/Km in [7] is 2000 ± 100 M⁻¹ s⁻¹; in data set [8], less than 0.02 M⁻¹ s⁻¹; in data set [9], 143 ± 28 M⁻¹ s⁻¹; in [10] it was 5600 ± 1400 M⁻¹ s⁻¹; in data set [11], 154 ± 44 M⁻¹ s⁻¹; in data set [12] it was 0.32 ± 0.08 M⁻¹ s⁻¹.

Consider `O=C(O)[C@H]1/C(=C/CO)O[C@@H]2CC(=O)N21` [Clavulanate], for which the kinact on LRA-5 (read-out: LRA-5 (wild-type) / kcat (s^−1) / NH / kinact) was 0.005 ± 0.0001 s⁻¹. Also, the kinact/KI at LRA-5 (read-out: LRA-5 (wild-type) / kcat/Km (M^−1 s^−1) / ND / kinact/K) was found to be 833 ± 102 M⁻¹ s⁻¹.
